# In patent US11945858B2, “Antibodies and antibody fragments against HNAV1.7 channel and their use in pain and cancer indications” (NATIONAL RESEARCH COUNCIL OF CANADA, priority 2018, dated 2024):
# “And” between values parts separate entries of the source, which are not always exact repeats. Equal entries are not always repeated. “Also recorded” adds a separate entry of the source.
# Legend:
# [1] = system: OD1-evoked Nav1.7-mediated spontaneous pain behaviours; type: in vivo, mouse; conditions: 100 μg, injected 60 minutes prior to OD1; 20 min after the injection
# [2] = system: CHO-3E7; assay: Cell-ELISA on live CHO-3E7 cells; type: cell-based, Chinese hamster; conditions: hybridoma supernatant, OD450 nm
# Procedure: Cell-ELISA. Sterile 96-well plates (Costar #3595) were pre-treated with 50 μl/well of branched polyethyleneimine (PEI, Sigma Cat #408727) at 25 μg/ml in PBS for 30 min at room temperature. PEI was removed and CHO-3E7 or hNAv1.7-CHO (ChanTest cat #CT4003) were seeded at 6×10^5 cells per well in FreeStyle F17 Expression Medium (Gibco Cat #A1383501) and incubated overnight at 37° C., 5% CO2. Microplates were blocked with Starting block (Thermofisher Cat #37538) for 30 min at room temperature, and 50 μl of hybridoma supernatants were added and incubated at 4° C. for 3 h. Plates were washed 5 times with PBS and incubated for one hour at 4° C. with 50 μl of secondary antibody HRP-conjugated F(ab′)2 goat anti-mouse IgG (H+L) (Jackson Immunoresearch #115-036-062) diluted 1/5000 in blocking buffer. After 10 washes with PBS, 50 μl of TMB substrate solution (Pierce Cat #34021) was added and further incubated for 60 min at room temperature. Twenty-five μl/well of stop solution ([…] 1M) was added and OD450 nm measurements were done using a microplate reader (Spectramax 340 PC, Molecular Devices).
# [3] = molecular target: hNav1.7 channels (Homo sapiens, UniProt Q15858, W1161R); assay: Patch-clamp whole-cell recordings in hNav1.7-HEK293 cells; type: cell-based
# [4] = molecular target: T1, FC5DIE3IR (Homo sapiens, UniProt Q15858); assay: Surface Plasmon Resonance of mAbs, FC5DIE3IR; type: binding
# T1 construct: The supernatant was collected and loaded on a 5 ml MabSelect™ SuRe™ column; made in house; host or cells: CHO-3E7 (transient, pTT5 vector), purified from supernatant
# Procedure: (§1) Surface Plasmon Resonance of mAbs. FC5 and FC5DIE3IR proteins were SEC purified using a Superdex 75 column (GE Healthcare) connected to an AKTAPurifier (GE Healthcare) in HBS-EP+ running buffer (10 mM HEPES, pH 7.4, containing 150 mM NaCl, 3 mM EDTA and 0.05% P20) at a flow rate of 1 ml/min. Monomeric eluted peaks were used to flow over Fc-capture 3A8 mAb surfaces. To prepare the 3A8 mAb surfaces, approximately 6000 RUs of anti-mouse IgG (GE Healthcare) was first immobilized on CM5 Series S sensor chips (GE Healthcare) at pH 5.0, using standard amine coupling methods previously reported (Hussack et al., 2011) and according to the manufacturer's instructions (GE Healthcare). HBS-EP running buffer used for SPR experiments. The mAb 3A8 was captured on the anti-mouse IgG surface using 10 μg/ml of mAb, 30 sec contact time and flow rate of 10 μl/min. IMAC-purified DI-D VHH was passed through a Superdex 75 (GE Healthcare) column for SEC purification in HBS-EP buffer (10 mM HEPES, pH 7.4, containing 150 mM NaCl, 3 mM EDTA and 0.005% P20), connected to an AKTAPurifier (GE Healthcare) at a flow rate of 1 ml/min. Test binding experiments of FC5 control and FC5DIE3IR involved flowing 1 μM concentrations of SEC-pure material over the mAb surface at a flow rate of 30 μl/min for 5 min. Surfaces could be regenerated using 10 mM glycine, pH 1.7, with a 120 sec pulse at 20 μl/min. All SPR experiments were evaluated with Biacore T200 Software v 3.0. For kinetic analysis, single cycle kinetic analysis was used by flowing a range of FC5DIE3IR concentrations (320 nM-20 nM) at a flow rate of 30 μl/min, with 600 sec contact time and 1200 sec dissociation. Regeneration conditions were the same as above. Data were fit to a 1:1 binding model and analyzed using the Biacore T200 Software v3.0.
# (§2) Surfaces were regenerated by washing with running buffer (HBS-EP). Data were analyzed with BIAevaluation 4.1 software as described (Hussack et al., 2011) and affinities determined using the steady state binding model.
# (§3) Surface Plasmon Resonance (SPR) for monoclonal antibodies.
# [5] = molecular target: T1, FC5DIE3IR; assay: Hydrogen-Deuterium Exchange Mass Spectrometry (HDX-MS); type: binding; conditions: labelling 1, 10 and 60 min
# [6] = molecular target: T1, FC5DIE3IR; assay: Evaluation of apparent affinity of purified mAbs in ELISA; type: binding; conditions: purified mAb, OD 405 nm
# Procedure: Screening. Hybridoma supernatants were screened by ELISA to detect specific binders. To this end, 96-well half-area plates (Costar #3690) were coated with 25 μl of FC5DIE3IR or FC5-VHH or FC5-hFc-1X0 at 5 μg/ml in PBS and incubated overnight at 4° C. Microplates were washed 3 times with PBS, blocked with PBS-BSA 1%, and 25 μl of hybridoma supernatants were added and incubated at 37° C., 5% CO2 for 2 hours. Plates were washed 4 times with PBS-Tween 20 0.05% and incubated for one hour at 37° C., 5% CO2 with 25 μl of secondary antibody alkaline phosphatase conjugated F(ab′)2 goat anti-mouse IgG Fc-gamma specific (Jackson Immunoresearch #115-056-071) diluted 1/3000 in blocking buffer. After 4 washes with PBS-Tween 20 0.05%, 25 μl of a 1 mg/ml pNPP substrate solution was added and further incubated for one hour at 37° C. OD405 nm measurements were done using a microplate reader (Spectramax 340 PC, Molecular Devices).
# Evaluation of apparent affinity in ELISA. Purified antibodies were assessed for their binding activity by ELISA in a dose-dependent binding curve. […] The data were analyzed with GraphPad Prism software using one-site specific binding-with Hill slope non-linear regression curve fit model to determine Bmax (maximum specific binding) and Kdapp (concentration needed to achieve a half-maximum binding at equilibrium) for each mAb tested. […]
# [7] = system: VHH FC5; assay: Surface Plasmon Resonance of mAbs, FC5 control; type: binding; conditions: SPR; 25 °C
# Procedure: as §1, §2, §3
# [8] = −20 mV, after antibody application (1 μM)
# Chain of VHH FC5 (as listed by the source): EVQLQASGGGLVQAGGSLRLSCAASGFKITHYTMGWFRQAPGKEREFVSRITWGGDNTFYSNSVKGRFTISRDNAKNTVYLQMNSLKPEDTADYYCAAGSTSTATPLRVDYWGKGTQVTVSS
molecule,measurement,setting,value
"3A8: anti-hNav1.7 mouse monoclonal antibody, IgG2a, k; heavy chain SEQ ID NO: 12, light chain SEQ ID NO: 18 (antibody, V domains shown, Heavy chain of the 3A8 antibody without leader sequence; Light chain of the 3A8 antibody without leader sequence) VH: QVQLQQPGAELVKPGASVKLSCKASGYTFTNYWMHWVKQRPGQGLEWIGEINPSNGRANYNEKFKSKATLTVDKSSSTAYMQLSSLTSEDSAVYYCARSPYGYYDYWGQGTTLTVSSAKTTAPSVYPLAP VL: DVLMTQTPLSLPVSLGDQASISCRSSQSLLHSNGNTYFHWYLQKPGQSPKLLIYKVSNRFFGVPDRFSGSGSGTDFTLKISRVEAEDLGVYFCSQITHVPLTFGAGTKLELKRADAAPTVSIFPPSS",Time spent in pain behaviors (saline plus OD1 = 100%),[1],73.76%±5.38
same,ELISA on live cells (duplicates) CHO-3E7,[2]; duplicate 1,−0.027
same,ELISA on live cells (duplicates) CHO-3E7,[2]; duplicate 2,−0.018
same,Voltage-dependence of activation (shift V1/2 activation),[3]; 1 μM,−6.0±1.0 mV and −6.0 mV
same,Voltage-dependence of the steady-state fast inactivation (shift V1/2 inactivation),[3]; 1 μM,−7.1±1.7 mV and −7.1 mV
same,Reduction of the hNav1.7 current in the time course,"[3]; 1 μM, single time-course recording (FIG. 6B)",approx. 13%
same,"Onset time of the effect (exponential fit of the current decay, T)","[3]; 1 μM, single time-course recording of the figure",176 s
same,Effect on hNav1.7 currents (in words),"[3]; example recordings, 1-3 μM",reduced the hNav1.7 currents in a dose dependent manner
same,Fast inactivation (time constant),[3]; [8],0.72 ± 0.08 ms and 0.72 ms
same,Time-to-peak,[3]; [8],0.88 ± 0.07 ms and 0.88 ms
same,ka,[4],7050 M⁻¹ s⁻¹
same,kd,[4],0.000259 s⁻¹
same,Rmax (RU),"[4]; Fc-captured mAb, FC5-DIE3IR flowed, 25 °C",80 RU
same,"Binding to FC5DIE3IR (comment, in words)","[4]; SPR, 25 °C",bound specifically FC5DIE3IR; also recorded: strong and specific binding; also recorded: strongly and specifically bound; also recorded: extremely slow off rate
same,"Stabilization of FC5DIE3IR in response to mAb binding (residues, differential HDX-MS)",[5],Asn121-Tyr134
same,Bmax (maximum specific binding),[6],3.2
same,"Binding to FC5 control (comment, in words)",[7],did not bind FC5; also recorded: No binding
